Data taken from patent US20230365709A1.

Biological target: recombinant human CD16A (48R/158F) expressed on the surface of CHO cells (human) (UniProt P08637)
Experiment: flow cytometry, CHO-huCD16A cells, apparent KD; SD 62.5

Kd: 528 nM
B1: 2scDb-AFc-3 (protein)
chain 1: EVQLQQSGPELVKPGASVKMSCKASGYTFTDYVINWGKQRSGQGLEWIGEIYPGSGTNYYNEKFKAKATLTADKSSNIAYMQLSSLTSEDSAVYFCARRGRYGLYAMDYWGQGTSVTVSSGGSGGSGGSDIVMTQSPATLSLSPGERATLSCRSSKSLQNVNGNTYLYWFQQKPGQSPQLLIYRMSNLNSGVPDRFSGSGSGTEFTLTISSLEPEDFAVYYCMQHLEYPITFGAGTKLEIKGGSGGSGGSGGSGGSGGSGGSEVQLVESGGGLVKPGGSLKLSCAASGYTFTSYVMHWVRQAPGKGLEWIGYINPYNDGTKYNEKFQGRVTISSDKSISTAYMELSSLRSEDTAMYYCARGTYYYGTRVFDYWGQGTLVTVSSGGSGGSGGSDIQMTQTTSSLSASLGDRVTISCRASQDISNYLNWYQQKPDGTVKLLIYYTSRLHSGVPSRFSGSGSGTDYSLTINNLEQEDIATYFCQQGNTRPWTFGGGTKLEIKDKTHTCPPCPAPEFEGGPSVFLFPPKPKDTLMISRTPEVTCVVVAVSHEDPEVKFNWYVDGVEVHNAKTKPREEQYGSTYRVVSVLTVLHQDWLNGKEYKCKVSNKALPAPIEKTISKAKGQPREPQVYTLPPSREEMTKNQVSLWCLVKGFYPSDIAVEWESNGQPENNYKTTPPVLDSDGSFFLYSKLTVDKSRWQQGNVFSCSVMHEALHNHYTQKSLSLSPG
chain 2: EVQLVQSGAEVKKPGASVKVSCKASGYTFTNYYMQWVRQAPGQCLEWMGIINPSGGVTSYAQKFQGRVTMTRDTSTSTVYMELSSLRSEDTAVYYCARGSAYYYDFADYWGQGTLVTVSSGGSGGSGGSDIVMTQSPATLSLSPGERATLSCRSSKSLQNVNGNTYLYWFQQKPGQSPQLLIYRMSNLNSGVPDRFSGSGSGTEFTLTISSLEPEDFAVYYCMQHLEYPITFGAGTKLEIKGGSGGSGGSGGSGGSGGSGGSEVQLVESGGGLVKPGGSLKLSCAASGYTFTSYVMHWVRQAPGKGLEWIGYINPYNDGTKYNEKFQGRVTISSDKSISTAYMELSSLRSEDTAMYYCARGTYYYGTRVFDYWGQGTLVTVSSGGSGGSGGSSYELTQPLSVSVALGQTARITCGGNNIGSKSVHWYQQKPGQAPVLVIYQDKKRPSGIPERFSGSNSGNTATLTISRAQAGDEADYYCQVWDDYIVLFGCGTKLTVLDKTHTCPPCPAPEFEGGPSVFLFPPKPKDTLMISRTPEVTCVVVAVSHEDPEVKFNWYVDGVEVHNAKTKPREEQYGSTYRVVSVLTVLHQDWLNGKEYKCKVSNKALPAPIEKTISKAKGQPREPQVYTLPPSREEMTKNQVSLSCAVKGFYPSDIAVEWESNGQPENNYKTTPPVLDSDGSFFLVSKLTVDKSRWQQGNVFSCSVMHEALHNHYTQKSLSLSPG
